We go through four molecules from patent publication US20100223690A1, “COMPOSITIONS AND METHODS FOR MODULATING PLANT DISEASE RESISTANCE AND IMMUNITY” (Washington State University, published 2010).

Residue numbers refer to the chain shown, from its start.

The target of series [1] is Ca2+/calmodulin (endogenous, in Arabidopsis plants) (Arabidopsis thaliana). Put plainly: cell-based or functional assay.
Series [2] concerns the target T1, AtSR1 (CAMTA3) CG-1 DNA-binding domain (Arabidopsis thaliana, UniProt Q8GSA7 SEQ:1-153).
T1 sequence: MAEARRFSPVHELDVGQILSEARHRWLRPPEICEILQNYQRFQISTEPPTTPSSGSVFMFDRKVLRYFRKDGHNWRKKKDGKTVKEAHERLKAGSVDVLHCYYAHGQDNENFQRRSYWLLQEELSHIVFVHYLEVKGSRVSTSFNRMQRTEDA
Put plainly: EMSA; Ca2+/CaM-independent. The conditions noted are these: tags: 6xHis (pET32a). The protocol: (§1) The E. coli strain BL21(DE3)/pLysS carrying the above pET32a derived plasmids for expression of recombinant proteins of the wild-type and mutated versions of AtSR1, AtSR6 or ABF1 were induced with 0.5 mM IPTG for 3 hours. 6×His tagged recombinant proteins were purified using Ni-NTA agarose affinity beads (Qiagen) as described by the manufacturer. Recombinant AtSR1 or AtSR6 covering CG-1 domain, or ABF1 was used for EMSA³² to detect its interaction with WT or mutated EDS1 promoter fragments. Recombinant AtSR1 containing CaMBD was used for CaM overlay assay³⁸.

Series [3] concerns the target T1, AtSR1 (CAMTA3) CG-1 DNA-binding domain. Put plainly: EMSA; binding is ACGCGT-dependent. The conditions noted are these: tags: 6xHis (pET32a). The protocol:
as §1
Background: Mobility shift assays separate free from complexed probe on a gel.

Take “full-length wild-type AtSR1 fused to Flag tag, expressed from 35S::AtSR1 in atsr1-1 plants (from UniProt Q8GSA7 1-1032)”: the level of SA in complemented plants in series [1] is 60 % of WT.

With “full-length AtSR1 I909V fused to Flag tag, expressed from 35S::AtSR1I909V in atsr1-1 plants (from UniProt Q8GSA7 1-1032)”, the level of SA in complemented plants in series [1] was 60 % of WT.

B1: EDS1P probe (-762 to -731) (dsDNA)
DNA 1: GTAAAAGTCGAATGTGACGCGTCTTGCCGAAC
DNA 2: GTTCGGCAAGACGCGTCACATTCGACTTTTAC
With B1, in series [2], the binding result is reported as “binds”.

B2: eds1p mutant probe (dsDNA)
DNA 1: B1 DNA 1 with G19C
DNA 2: B1 DNA 2 with C14G
modifications: [19 (G>C)]
Consider B2, for which the binding result in series [3] is given as “no binding”.
